In patent US20150147316A1 (Seagen, published 2015):

Assays:
[1] = target: T1, cynomolgus CD33 (cynomolgus); experiment: flow cytometry on HEK293F cells expressing cyno CD33; competition with 1 nM AlexaFluor-647 m2H12 (methods paragraph 148)
T1 construct: Recombinant on transfected HEK293F cells; also called cyno CD33; cynoCD33
Procedure: (§1) Cells were centrifuged, washed 3 times with PBS, and resuspended in 125 μL of a PBS+1% BSA solution. Fluorescence was analyzed using a flow cytometer, and the percent of saturated fluorescent signal was used to determine percent labeled 2H12 mAb bound. The EC50 was extrapolated by fitting the data to a sigmoidal dose-response curve with variable slope.
(§2) Humanized heavy and light chains were paired with chimeric light and heavy chains (chimeric chains composed of murine variable regions and human constant regions) respectively. The humanized/chimeric hybrid variants of CD33 mAb were tested for binding to human CD33 expressed on the surface of HEL 92.1.7 AML cells (Table 5). Heavy chains HC and HI were selected for further study. Humanized antibodies were expressed representing permutations of humanized heavy chains HC and HI and humanized light chains LA, LE and LG and binding to cells expressing human or cynomolgus (cyno) CD33 was determined (Table 6). The HILG antibody (2H12 HILG) was selected as the humanized antibody that most closely resembled the binding characteristics of the murine CD33 mAb m2H12. The HILG antibody is referred to as the h2H12 antibody ([…] 2H12 antibody). The KD for m2H12, h2H12, and h2H12 with an S239C mutation (EU numbering) in the IgG1 heavy chain (referred to as h2H12EC, for engineered cysteine), was determined for human CD33 expressed as an endogenous protein in two AML cell lines or as a recombinant protein in a HEK293F cell line. The KD for these antibodies was also determined for cyno CD33 expressed as a recombinant protein in a HEK293F cell line (Table 7).

[2] = target: T2, human CD33 (human, UniProt P20138 18-364); experiment: flow cytometry on HEL 92.1.7 cells; competition with 1 nM AlexaFluor-647 m2H12 (methods paragraph 148)
T2 construct: Endogenous on HL-60 and HEL 92.1.7 AML cells, or recombinant on transfected HEK293F cells; The signal peptide is stated as amino acids 1-17; also called hCD33
T2 sequence (P20138 18-364): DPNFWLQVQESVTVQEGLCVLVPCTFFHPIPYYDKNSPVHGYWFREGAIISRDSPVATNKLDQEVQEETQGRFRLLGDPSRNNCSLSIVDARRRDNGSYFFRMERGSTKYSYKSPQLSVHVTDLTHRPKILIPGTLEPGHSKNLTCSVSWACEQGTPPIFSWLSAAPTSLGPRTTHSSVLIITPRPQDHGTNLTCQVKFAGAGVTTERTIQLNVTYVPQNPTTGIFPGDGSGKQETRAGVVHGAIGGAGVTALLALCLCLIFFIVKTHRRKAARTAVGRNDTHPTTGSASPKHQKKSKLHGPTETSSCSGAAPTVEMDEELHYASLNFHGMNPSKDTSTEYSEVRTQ
Procedure: as §1, §2

[3] = target: T2, human CD33; experiment: flow cytometry on HEK293F cells expressing human CD33; competition with 1 nM AlexaFluor-647 m2H12 (methods paragraph 148)
Procedure: as §1, §2

[4] = target: T2, human CD33; experiment: flow cytometry on HEL 92.1.7 AML cells; competition with 1 nM AlexaFluor-647 m2H12 (methods paragraph 148)
Procedure: as §1, §2

T1 sequence (chain, as listed by the source limits assumed): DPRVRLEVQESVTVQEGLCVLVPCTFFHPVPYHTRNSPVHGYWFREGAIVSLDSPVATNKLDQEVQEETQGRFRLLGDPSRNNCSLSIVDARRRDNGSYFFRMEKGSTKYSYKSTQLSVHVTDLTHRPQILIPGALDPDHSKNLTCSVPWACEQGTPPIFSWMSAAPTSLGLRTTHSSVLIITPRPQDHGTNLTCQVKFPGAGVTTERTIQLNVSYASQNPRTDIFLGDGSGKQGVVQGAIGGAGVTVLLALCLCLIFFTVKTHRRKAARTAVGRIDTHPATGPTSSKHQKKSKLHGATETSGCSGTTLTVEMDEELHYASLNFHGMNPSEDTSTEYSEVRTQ

Row | EC50 [1] [µM] | EC50 [2] [µM] | EC50 [3] [µM] | EC50 [4] [µM] | Binder
1 | 0.0648 | 0.0111 | 0.0193 | – | HILE (antibody, V domains shown, Humanized antibody, heavy chain HI with light chain LE) VH: QVQLVQSGAEVKKPGASVKVSCKASGYTFTNYDINWVRQAPGQGLEWIGWIYPGDGSTKYNEKFKAKATLTADTSTSTAYMELRSLRSDDTAVYYCASGYEDAMDYWGQGTTVTVSS VL: DIQMTQSPSSLSASVGDRVTITCKASQDINSYLSWFQQKPGKAPKSLIYRANRLVDGVPSRFSGSGSGTDYTLTISSLQPEDFATYYCLQYDEFPLTFGGGTKVEIK
2 | 0.129 | 0.0128 | 0.0222 | – | HCLE (antibody, V domains shown, Humanized antibody, heavy chain HC with light chain LE) VH: QVQLVQSGAEVKKPGASVKVSCKASGYTFTNYDINWVRQAPGQGLEWMGWIYPGDGSTKYNEKFKARVTMTTDTSTSTAYMELRSLRSDDTAVYYCASGYEDAMDYWGQGTTVTVSS VL: DIQMTQSPSSLSASVGDRVTITCKASQDINSYLSWFQQKPGKAPKSLIYRANRLVDGVPSRFSGSGSGTDYTLTISSLQPEDFATYYCLQYDEFPLTFGGGTKVEIK
3 | 0.0399 | 0.0078 | 0.0144 | 0.00339 | h2H12 antibody (2H12 HILG) (antibody, V domains shown, also called humanized 2H12; human 2H12 antibody) VH: QVQLVQSGAEVKKPGASVKVSCKASGYTFTNYDINWVRQAPGQGLEWIGWIYPGDGSTKYNEKFKAKATLTADTSTSTAYMELRSLRSDDTAVYYCASGYEDAMDYWGQGTTVTVSS VL: DIQMTQSPSSLSASVGDRVTINCKASQDINSYLSWFQQKPGKAPKTLIYRANRLVDGVPSRFSGSGSGQDYTLTISSLQPEDFATYYCLQYDEFPLTFGGGTKVEIK
4 | 0.063 | 0.0079 | 0.0179 | – | HCLG (antibody, V domains shown, Humanized antibody, heavy chain HC with light chain LG) VH: QVQLVQSGAEVKKPGASVKVSCKASGYTFTNYDINWVRQAPGQGLEWMGWIYPGDGSTKYNEKFKARVTMTTDTSTSTAYMELRSLRSDDTAVYYCASGYEDAMDYWGQGTTVTVSS VL: DIQMTQSPSSLSASVGDRVTINCKASQDINSYLSWFQQKPGKAPKTLIYRANRLVDGVPSRFSGSGSGQDYTLTISSLQPEDFATYYCLQYDEFPLTFGGGTKVEIK
5 | 0.126 | 0.0122 | 0.0268 | – | HILA (antibody, V domains shown, Humanized antibody, heavy chain HI with light chain LA) VH: QVQLVQSGAEVKKPGASVKVSCKASGYTFTNYDINWVRQAPGQGLEWIGWIYPGDGSTKYNEKFKAKATLTADTSTSTAYMELRSLRSDDTAVYYCASGYEDAMDYWGQGTTVTVSS VL: DIQMTQSPSSLSASVGDRVTITCKASQDINSYLSWFQQKPGKAPKSLIYRANRLVDGVPSRFSGSGSGTDFTLTISSLQPEDFATYYCLQYDEFPLTFGGGTKVEIK
6 | 0.141 | 0.0136 | 0.0317 | – | HCLA (antibody, V domains shown, Humanized antibody, heavy chain HC with light chain LA) VH: QVQLVQSGAEVKKPGASVKVSCKASGYTFTNYDINWVRQAPGQGLEWMGWIYPGDGSTKYNEKFKARVTMTTDTSTSTAYMELRSLRSDDTAVYYCASGYEDAMDYWGQGTTVTVSS VL: DIQMTQSPSSLSASVGDRVTITCKASQDINSYLSWFQQKPGKAPKSLIYRANRLVDGVPSRFSGSGSGTDFTLTISSLQPEDFATYYCLQYDEFPLTFGGGTKVEIK
7 | 0.0306 | 0.0054 | 0.0116 | 0.00238 | murine mAb 2H12 (antibody, V domains shown, Murine monoclonal antibody from Balb/c mice; also called m2H12; murine 2H12 antibody) VH: QVQLQQSGPELVRPGTFVKISCKASGYTFTNYDINWVNQRPGQGLEWIGWIYPGDGSTKYNEKFKAKATLTADKSSSTAYLQLNNLTSENSAVYFCASGYEDAMDYWGQGTSVTVSS VL: DIKMTQSPSSMYASLGERVIINCKASQDINSYLSWFQQKPGKSPKTLIYRANRLVDGVPSRFSGSGSGQDYSLTISSLEYEDMGIYYCLQYDEFPLTFGAGTKLELK
8 | – | – | – | 0.00261 | cHLA (antibody, V domains shown, Hybrid of the chimeric heavy chain (murine VH, human constant region) and humanized light chain LA) VH: QVQLQQSGPELVRPGTFVKISCKASGYTFTNYDINWVNQRPGQGLEWIGWIYPGDGSTKYNEKFKAKATLTADKSSSTAYLQLNNLTSENSAVYFCASGYEDAMDYWGQGTSVTVSS VL: DIQMTQSPSSLSASVGDRVTITCKASQDINSYLSWFQQKPGKAPKSLIYRANRLVDGVPSRFSGSGSGTDFTLTISSLQPEDFATYYCLQYDEFPLTFGGGTKVEIK
9 | – | – | – | 0.00197 | c2H12 (antibody, V domains shown, also called chimeric 2H12) VH: QVQLQQSGPELVRPGTFVKISCKASGYTFTNYDINWVNQRPGQGLEWIGWIYPGDGSTKYNEKFKAKATLTADKSSSTAYLQLNNLTSENSAVYFCASGYEDAMDYWGQGTSVTVSS VL: DIKMTQSPSSMYASLGERVIINCKASQDINSYLSWFQQKPGKSPKTLIYRANRLVDGVPSRFSGSGSGQDYSLTISSLEYEDMGIYYCLQYDEFPLTFGAGTKLELK
10 | – | – | – | 0.00195 | cHLE (antibody, V domains shown, Hybrid of the chimeric heavy chain (murine VH, human constant region) and humanized light chain LE) VH: QVQLQQSGPELVRPGTFVKISCKASGYTFTNYDINWVNQRPGQGLEWIGWIYPGDGSTKYNEKFKAKATLTADKSSSTAYLQLNNLTSENSAVYFCASGYEDAMDYWGQGTSVTVSS VL: DIQMTQSPSSLSASVGDRVTITCKASQDINSYLSWFQQKPGKAPKSLIYRANRLVDGVPSRFSGSGSGTDYTLTISSLQPEDFATYYCLQYDEFPLTFGGGTKVEIK
11 | – | – | – | 0.00248 | cHLD (antibody, V domains shown, Hybrid of the chimeric heavy chain (murine VH, human constant region) and humanized light chain LD) VH: QVQLQQSGPELVRPGTFVKISCKASGYTFTNYDINWVNQRPGQGLEWIGWIYPGDGSTKYNEKFKAKATLTADKSSSTAYLQLNNLTSENSAVYFCASGYEDAMDYWGQGTSVTVSS VL: DIQMTQSPSSLSASVGDRVTITCKASQDINSYLSWFQQKPGKAPKSLIYRANRLVDGVPSRFSGSGSGQDFTLTISSLQPEDFATYYCLQYDEFPLTFGGGTKVEIK
12 | – | – | – | 0.00295 | HCcL (antibody, V domains shown, Hybrid of humanized heavy chain HC and the chimeric light chain (murine VL, human constant region)) VH: QVQLVQSGAEVKKPGASVKVSCKASGYTFTNYDINWVRQAPGQGLEWMGWIYPGDGSTKYNEKFKARVTMTTDTSTSTAYMELRSLRSDDTAVYYCASGYEDAMDYWGQGTTVTVSS VL: DIKMTQSPSSMYASLGERVIINCKASQDINSYLSWFQQKPGKSPKTLIYRANRLVDGVPSRFSGSGSGQDYSLTISSLEYEDMGIYYCLQYDEFPLTFGAGTKLELK
13 | – | – | – | 0.00249 | cHLC (antibody, V domains shown, Hybrid of the chimeric heavy chain (murine VH, human constant region) and humanized light chain LC) VH: QVQLQQSGPELVRPGTFVKISCKASGYTFTNYDINWVNQRPGQGLEWIGWIYPGDGSTKYNEKFKAKATLTADKSSSTAYLQLNNLTSENSAVYFCASGYEDAMDYWGQGTSVTVSS VL: DIQMTQSPSSLSASVGDRVTITCKASQDINSYLSWFQQKPGKAPKTLIYRANRLVDGVPSRFSGSGSGTDFTLTISSLQPEDFATYYCLQYDEFPLTFGGGTKVEIK
14 | – | – | – | 0.00191 | cHLG (antibody, V domains shown, Hybrid of the chimeric heavy chain (murine VH, human constant region) and humanized light chain LG) VH: QVQLQQSGPELVRPGTFVKISCKASGYTFTNYDINWVNQRPGQGLEWIGWIYPGDGSTKYNEKFKAKATLTADKSSSTAYLQLNNLTSENSAVYFCASGYEDAMDYWGQGTSVTVSS VL: DIQMTQSPSSLSASVGDRVTINCKASQDINSYLSWFQQKPGKAPKTLIYRANRLVDGVPSRFSGSGSGQDYTLTISSLQPEDFATYYCLQYDEFPLTFGGGTKVEIK
15 | – | – | – | 0.00256 | HIcL (antibody, V domains shown, Hybrid of humanized heavy chain HI and the chimeric light chain (murine VL, human constant region)) VH: QVQLVQSGAEVKKPGASVKVSCKASGYTFTNYDINWVRQAPGQGLEWIGWIYPGDGSTKYNEKFKAKATLTADTSTSTAYMELRSLRSDDTAVYYCASGYEDAMDYWGQGTTVTVSS VL: DIKMTQSPSSMYASLGERVIINCKASQDINSYLSWFQQKPGKSPKTLIYRANRLVDGVPSRFSGSGSGQDYSLTISSLEYEDMGIYYCLQYDEFPLTFGAGTKLELK
16 | – | – | – | 0.00253 | cHLB (antibody, V domains shown, Hybrid of the chimeric heavy chain (murine VH, human constant region) and humanized light chain LB) VH: QVQLQQSGPELVRPGTFVKISCKASGYTFTNYDINWVNQRPGQGLEWIGWIYPGDGSTKYNEKFKAKATLTADKSSSTAYLQLNNLTSENSAVYFCASGYEDAMDYWGQGTSVTVSS VL: DIKMTQSPSSLSASVGDRVTITCKASQDINSYLSWFQQKPGKAPKSLIYRANRLVDGVPSRFSGSGSGTDFTLTISSLQPEDFATYYCLQYDEFPLTFGGGTKVEIK
17 | – | – | – | 0.00202 | cHLF (antibody, V domains shown, Hybrid of the chimeric heavy chain (murine VH, human constant region) and humanized light chain LF) VH: QVQLQQSGPELVRPGTFVKISCKASGYTFTNYDINWVNQRPGQGLEWIGWIYPGDGSTKYNEKFKAKATLTADKSSSTAYLQLNNLTSENSAVYFCASGYEDAMDYWGQGTSVTVSS VL: DIQMTQSPSSLSASVGDRVIINCKASQDINSYLSWFQQKPGKAPKSLIYRANRLVDGVPSRFSGSGSGTDFTLTISSLQPEDFATYYCLQYDEFPLTFGGGTKVEIK
